Data on one molecule can be found in US11912777 (NANJING LEADS BIOLABS, dated 2024).

Test [1] has as its target T1, Cynomolgus TNFR2, human Fc tag protein (cynomolgus).
T1 construct: also called cyno-TNFR2-huFc
Kind of test: ELISA on coated cyno-TNFR2-huFc; bottom panel. (In general: In an ELISA, binding on a coated surface is turned into a signal by an enzyme label.)

Test [2] concerns the target T2, human TNFR2, mouse Fc-tag (human).
T2 construct: also called hTNFR2-mFc; huTNFR2-mFc
T2 chain: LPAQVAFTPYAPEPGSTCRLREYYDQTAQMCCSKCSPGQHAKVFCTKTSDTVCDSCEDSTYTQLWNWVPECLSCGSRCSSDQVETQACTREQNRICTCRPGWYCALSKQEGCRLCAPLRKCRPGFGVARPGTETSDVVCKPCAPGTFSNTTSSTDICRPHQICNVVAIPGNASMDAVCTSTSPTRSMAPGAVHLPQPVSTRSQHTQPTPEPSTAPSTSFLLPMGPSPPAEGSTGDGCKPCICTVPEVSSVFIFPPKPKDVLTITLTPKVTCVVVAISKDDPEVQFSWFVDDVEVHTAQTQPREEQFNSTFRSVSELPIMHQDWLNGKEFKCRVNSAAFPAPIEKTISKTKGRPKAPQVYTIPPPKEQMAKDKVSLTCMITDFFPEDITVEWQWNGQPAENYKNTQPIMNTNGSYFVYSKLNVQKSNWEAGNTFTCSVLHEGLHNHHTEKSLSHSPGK
Kind of test: ELISA on coated human TNFR2-mFc, left panel; fit value of a flat control curve; unit from the axis [a].

Test [3] concerns the target T3, Human TNFR2, human Fc tag protein (human).
T3 construct: also called huTNFR2-huFc; HuTNFR2-huFc
Kind of test: ELISA on coated huTNFR2-huFc, middle panel (with 43B7A4); fit value of a flat control curve; unit from the axis.

The target in test [4] is T2, human TNFR2, mouse Fc-tag. Kind of test: ELISA on coated human TNFR2-mFc, left panel; fit value of a flat control curve; unit from the axis [b].
The target of test [5] is T2, human TNFR2, mouse Fc-tag. Kind of test: blocking ELISA: hTNFR2-mFc mixed with antibody, binding to coated TNF-alpha his tag; right panel; fit value of a flat control curve; unit from the axis [a].
The target in test [6] is T3, Human TNFR2, human Fc tag protein. Kind of test: ELISA on coated huTNFR2-huFc, top panel (with 32A1D5); fit value of a flat control curve; unit from the axis.
Test [7] has as its target T4, human TNFR2 expressed on activated PBMCs (human, UniProt P20333 23-461).
T4 construct: whole, on cells; Native receptor on primary cells
T4 sequence (looked up): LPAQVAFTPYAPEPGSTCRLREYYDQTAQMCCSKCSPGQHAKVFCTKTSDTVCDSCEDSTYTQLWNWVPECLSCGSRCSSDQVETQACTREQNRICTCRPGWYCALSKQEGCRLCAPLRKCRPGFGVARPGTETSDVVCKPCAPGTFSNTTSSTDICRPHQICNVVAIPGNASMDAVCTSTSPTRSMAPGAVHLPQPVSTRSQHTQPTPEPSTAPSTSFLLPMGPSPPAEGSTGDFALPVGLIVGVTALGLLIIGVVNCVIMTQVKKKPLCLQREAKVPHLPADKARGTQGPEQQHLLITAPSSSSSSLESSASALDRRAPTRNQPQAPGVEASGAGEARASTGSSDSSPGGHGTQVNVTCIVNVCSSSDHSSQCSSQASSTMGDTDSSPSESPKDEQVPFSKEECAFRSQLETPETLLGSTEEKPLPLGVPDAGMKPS
Kind of test: flow cytometry on activated human PBMCs. On the technique in general: Flow cytometry measures light scatter and fluorescence of single cells or particles in a stream.

B1: negative control IgG (antibody, V domains shown)
VH: QVQLVESGGGAVQPGRSLRLSCAASGFTFSSYGMHWVRQAPGKGLEWVAVILYDGSDKFYADSVKGRFTISRDNSKNTLYLQMNSLRAEDTAVYYCAKVAVAGTHFDYWGQGTLVTVSS
VL: DIQMTQSPSSLSASVGDRVTITCRASQGIRNDLGWYQQKPGKAPKLLIYAASSLQSGVPSRFSGSGSGTDFTLTISSLQPEDFATYYCQQLNSYPPTFGGGTKVEIKR
notes: also called IgG Control; IgG (Negative Control)
Broadly, the EC50 is the concentration giving half of the maximal effect. Read a high EC50 as a less potent agent. Usually IC50 stands for the point on the concentration scale where inhibition reaches its midpoint. Regarding B1, the figures for the binding result in test [1] and in test [7] were “no binding (tested: about 1 nM)” and “no binding”, respectively. Besides, the concentration for a half-maximal effect (EC50) in test [2] was roughly 0.102 nM; in test [3], 277 nM; in test [4], roughly 3.06 nM; in test [6] it was roughly 0.102 nM. Moreover, in test [5], the half-maximal inhibitory concentration (IC50) was roughly 2.06 nM.
